Test results as given in patent US4016250A, “Method for testing for pregnancy” (Cornell Research Foundation, Inc., priority 1974, dated 1977).

Legend:
[1] = biological target: T1, PRL receptor sites in ovarian homogenates (Bos taurus, UniProt Q28172); experiment: Specificity of 125I-hPRL binding: displacement by unlabeled hormones; design: species or system bovine
T1 construct: from tissue; host or cells: ovarian homogenate (bovine, from the preparation section)
T1 sequence (Q28172 25-581): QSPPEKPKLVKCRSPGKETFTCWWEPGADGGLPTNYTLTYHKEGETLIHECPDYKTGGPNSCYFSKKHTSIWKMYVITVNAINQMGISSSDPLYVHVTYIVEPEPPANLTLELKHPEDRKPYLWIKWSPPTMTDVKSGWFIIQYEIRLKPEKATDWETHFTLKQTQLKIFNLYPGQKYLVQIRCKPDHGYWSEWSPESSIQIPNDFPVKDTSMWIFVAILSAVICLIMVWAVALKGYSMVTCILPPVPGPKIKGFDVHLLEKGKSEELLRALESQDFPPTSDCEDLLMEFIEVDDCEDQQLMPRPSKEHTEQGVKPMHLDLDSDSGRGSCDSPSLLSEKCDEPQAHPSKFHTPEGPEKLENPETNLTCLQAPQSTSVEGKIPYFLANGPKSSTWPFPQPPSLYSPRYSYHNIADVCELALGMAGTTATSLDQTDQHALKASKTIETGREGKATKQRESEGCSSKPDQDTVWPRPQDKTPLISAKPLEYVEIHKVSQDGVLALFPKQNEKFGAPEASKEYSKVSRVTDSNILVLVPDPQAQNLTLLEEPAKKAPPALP
Method: A reaction mixture containing 100 ul of incubation buffer containing 10 IU Trasylol (FBA Pharmaceuticals, New York, New York), 50 ul of receptor preparation equivalent to 1-300 ug of protein and 100 ul of ^125 I-hPRL (SA; 50-70 uCi/ug) were incubated at 37° C. for 2 hours in the absence and in the presence of 1 ug of unlabeled bovine PRL. At the end of incubation, 1 ml of ice cold buffer was added to all tubes and tubes were centrifuged at 5,000 rpm for 20 minutes. The supernatants were aspirated. The pellets containing receptor bound hormones were counted in an Automamma counter with a 51% efficiency for ^125 I (Packard Instrument Company, Downers Grove, Illinois). Specific binding was calculated as the difference of binding in the tubes with and without unlabeled PRL.

[2] = biological target: T2, receptor for HCG in plasma membranes from bovine corpora lutea (Bos taurus, UniProt Q28005); experiment: Radioreceptorassay of HCG: competition with 125I-HCG for plasma membrane receptor; type: binding; settings: for cross-reaction in the radioreceptorassay of HCG: highly purified preparations, 30 minutes at 37° C
T2 construct: 100 g. of tissue from approximately 25 large corpora lutea; from tissue; host or cells: bovine corpora lutea of early pregnancy (slaughterhouse), plasma membrane fraction from zonal sucrose gradient
T2 sequence (Q28005 27-701): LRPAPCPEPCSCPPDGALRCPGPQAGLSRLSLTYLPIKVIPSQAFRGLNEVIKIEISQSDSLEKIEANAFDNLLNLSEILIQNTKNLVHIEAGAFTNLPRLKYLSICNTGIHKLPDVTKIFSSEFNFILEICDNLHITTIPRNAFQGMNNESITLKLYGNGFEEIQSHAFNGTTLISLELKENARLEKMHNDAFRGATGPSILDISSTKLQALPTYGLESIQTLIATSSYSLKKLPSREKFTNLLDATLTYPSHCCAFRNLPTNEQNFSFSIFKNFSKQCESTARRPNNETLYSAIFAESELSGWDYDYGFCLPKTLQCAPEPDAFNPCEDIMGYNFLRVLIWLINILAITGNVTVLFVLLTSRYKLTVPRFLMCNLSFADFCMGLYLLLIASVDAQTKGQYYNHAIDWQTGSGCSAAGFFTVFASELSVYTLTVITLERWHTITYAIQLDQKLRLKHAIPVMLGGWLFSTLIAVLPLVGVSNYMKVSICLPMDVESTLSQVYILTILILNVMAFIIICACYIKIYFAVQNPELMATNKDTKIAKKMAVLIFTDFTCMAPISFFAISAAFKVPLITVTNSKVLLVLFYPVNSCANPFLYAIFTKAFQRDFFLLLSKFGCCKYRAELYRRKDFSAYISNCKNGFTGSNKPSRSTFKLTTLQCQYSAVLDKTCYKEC
Method: All procedures in the preparation of plasma membranes were carried out in an ice bath or at 4° C. Fresh bovine ovaries from early pregnancy (first trimester: fetus length from crown to rump up to 22 cm.) were obtained from the slaughter house and stored in liquid nitrogen until processed. In a typical experiment, 100 g. of tissue from approximately 25 large corpora lutea were cut into small pieces with a sharp steel blade and ground in 500 ml. of 10 mM. Tris-HCl buffer of pH. 7.8 containing one mM. of MgCl2, one MM. dithiothreitol, 10,000I.U. of Trasylol (FBA Pharmaceuticals) per liter and 0.25 M. sucrose. The homogenate was filtered through two layers of cheese cloth and the larger particles were reprocessed in 500 ml. of the buffer. […] The homogenate was centifuged at 650 xg. for 20 minutes in a Sorvall refrigerated centrifuge (RC B, Rotor GSA) to remove intact cells, cell debris and nuclei. The 650 × g. supernatant was again centrifuged at 13,000 g. for 20 minutes in the same centrifuge. Supernatant was this time discarded and the pellet was resuspended in 50 to 70 ml. of the Tris-HCl buffer with the aid of the Teflon-glass homogenizer. This suspension was injected in the core of a TI-14 zonal rotor (Model Beckman Spinco L3-50) spinning at 3,000 rpm. and containing 500 ml. of a linear sucrose gradient (LKB Ultrograd 11300 pump) from 30% (w/v) to 50% (w/v) sucrose and 120 ml. of cushion of 50% (w/v) sucrose (pumping rate 20 ml./min.) An overlay of 20 ml. was injected after the sample. After two hours of centrifugation at 45,000 rpm., the centrifuge was decelerated and the rotor content displaced with 55% sucrose at 20 ml./min. […]
In Table I, the incubation was performed for 30 minutes at 37° C. in a Dunaboff water bath shaker. […] The supernates were aspirated and the pellets were counted in a Packard Autogamma counter with a 51% efficiency for I^125. The standard curves and the hormonal concentration in the plasma samples were calculated by a time sharing IBM computer using logit-log transformations.

[3] = biological target: T3, PRL receptor sites in plasma membrane from bovine corpora lutea (Bos taurus, UniProt Q28172); experiment: Binding of 125I-hPRL to plasma membrane / ovarian homogenate (saturation, time course)
T3 construct: plasma membrane from bovine corpora lutea; from tissue; host or cells: bovine corpora lutea, plasma membranes
T3 sequence (Q28172 25-581): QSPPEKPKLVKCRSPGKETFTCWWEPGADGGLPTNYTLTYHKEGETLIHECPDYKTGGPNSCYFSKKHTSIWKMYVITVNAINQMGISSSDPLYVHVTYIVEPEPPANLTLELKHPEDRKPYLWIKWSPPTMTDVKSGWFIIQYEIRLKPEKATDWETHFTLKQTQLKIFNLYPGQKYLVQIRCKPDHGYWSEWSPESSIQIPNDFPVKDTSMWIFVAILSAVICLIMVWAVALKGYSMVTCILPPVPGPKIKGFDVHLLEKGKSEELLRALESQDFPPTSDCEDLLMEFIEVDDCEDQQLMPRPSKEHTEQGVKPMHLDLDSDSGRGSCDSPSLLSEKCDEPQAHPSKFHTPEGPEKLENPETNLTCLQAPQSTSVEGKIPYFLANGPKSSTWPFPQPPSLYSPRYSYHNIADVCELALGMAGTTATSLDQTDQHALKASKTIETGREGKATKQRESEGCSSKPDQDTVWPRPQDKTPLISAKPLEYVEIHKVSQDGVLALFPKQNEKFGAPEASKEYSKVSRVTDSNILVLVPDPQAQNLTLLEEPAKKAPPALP
Method: […] At the end of incubation, 1 ml of ice cold buffer was added to all tubes and tubes were centrifuged at 5,000 rpm for 20 minutes. The supernatants were aspirated. The pellets containing receptor bound hormones were counted in an Automamma counter with a 51% efficiency for ^125 I (Packard Instrument Company, Downers Grove, Illinois). Specific binding was calculated as the difference of binding in the tubes with and without unlabeled PRL. Specific binding of ^125 I-hPRL to plasma membrane from bovine corpora lutea was a saturable process.

B1: bovine PRL: bovine prolactin, unlabeled (protein, UniProt P01239 31-229, looked up)
Prolactin: TPVCPNGPGNCQVSLRDLFDRAVMVSHYIHDLSSEMFNEFDKRYAQGKGFITMALNSCHTSSLPTPEDKEQAQQTHHEVLMSLILGLLRSWNDPLYHLVTEVRGMKGAPDAILSRAIEIEEENKRLLEGMEMIFGQVIPGAKETEPYPVWSGLPSLQTKDEDARYSAFYNLLHCLRRDSSKIDTYLKLLNCRIIYNNNC
potency in competing with 125I-hPRL [1]: essentially of similar potency
effect on specific binding of 125I-hPRL to ovarian homogenates ([1]; 1 ug unlabeled hormone added): inhibited

B2: ovine PRL: ovine prolactin (protein, UniProt P01240 31-229, looked up)
Prolactin: TPVCPNGPGNCQVSLRDLFDRAVMVSHYIHNLSSEMFNEFDKRYAQGKGFITMALNSCHTSSLPTPEDKEQAQQTHHEVLMSLILGLLRSWNDPLYHLVTEVRGMKGVPDAILSRAIEIEEENKRLLEGMEMIFGQVIPGAKETEPYPVWSGLPSLQTKDEDARHSAFYNLLHCLRRDSSKIDTYLKLLNCRIIYNNNC
potency in competing with 125I-hPRL [1]: essentially of similar potency

B3: prolactin (protein, UniProt P01236 29-227, looked up)
Prolactin: LPICPGGAARCQVTLRDLFDRAVVLSHYIHNLSSEMFSEFDKRYTHGRGFITKAINSCHTSSLATPEDKEQAQQMNQKDFLSLIVSILRSWNEPLYHLVTEVRGMQEAPEAILSKAVEIEEQTKRLLEGMELIVSQVHPETKENEIYPVWSGLPSLQMADEESRLSAYYNLLHCLRRDSHKIDNYLKLLKCRIIHNNNC
cross-reaction in the radioreceptorassay of HCG (FIG. 2) ([2]; FIG. 2 legends: TSH, HGH, PRL are plasma from hypothyroid, acromegalic, postpartum lactation subjects): no cross-reaction
cross-reaction in the radioreceptorassay of HCG [2]: complete lack of cross-reaction

B4: ^125 I-hPRL: human prolactin iodinated with 125I by chloramine-T or lactoperoxidase (protein, UniProt P01236 29-227, looked up)
Prolactin: LPICPGGAARCQVTLRDLFDRAVVLSHYIHNLSSEMFSEFDKRYTHGRGFITKAINSCHTSSLATPEDKEQAQQMNQKDFLSLIVSILRSWNEPLYHLVTEVRGMQEAPEAILSKAVEIEEQTKRLLEGMELIVSQVHPETKENEIYPVWSGLPSLQMADEESRLSAYYNLLHCLRRDSHKIDNYLKLLKCRIIHNNNC
modifications: 125I label
notes: human prolactin iodinated with 125I by chloramine-T or lactoperoxidase
fraction of 125I-hPRL bound ([3]; 100 ug of homogenate, absence of unlabeled PRL): 20-20%
time to reach binding equilibrium ([3]; 37° C): 2 h
binding ([3]; incubation): little binding

B5: HPL: highly purified preparation of HPL, abbreviation not expanded in the text (protein, UniProt P0DML2 27-217, looked up)
Chorionic somatomammotropin …: VQTVPLSRLFDHAMLQAHRAHQLAIDTYQEFEETYIPKDQKYSFLHDSQTSFCFSDSIPTPSNMEETQQKSNLELLRISLLLIESWLEPVRFLRSMFANNLVYDTSDSDDYHLLKDLEEGIQTLMGRLEDGSRRTGQILKQTYSKFDTNSHNHDALLKNYGLLYCFRKDMDKVETFLRMVQCRSVEGSCGF
cross-reaction in the radioreceptorassay of HCG [2]: complete lack of cross-reaction

B6: human chorionic somatomammotropin (protein, UniProt P0DML2 27-217, looked up)
Chorionic somatomammotropin …: VQTVPLSRLFDHAMLQAHRAHQLAIDTYQEFEETYIPKDQKYSFLHDSQTSFCFSDSIPTPSNMEETQQKSNLELLRISLLLIESWLEPVRFLRSMFANNLVYDTSDSDDYHLLKDLEEGIQTLMGRLEDGSRRTGQILKQTYSKFDTNSHNHDALLKNYGLLYCFRKDMDKVETFLRMVQCRSVEGSCGF
displacement of 125I-hPRL bound to receptor protein ([1]; various concentrations): capable of displacing
